Test results from US20240343835A1, “COVALENT HETEROBIVALENT ANTIBODY INHIBITORS AND LIGANDS” (UNIVERSITY OF NOTRE DAME DU LAC, priority 2015, published 2024).
Values belong to the binder of their own block, whether it stands above or below them. Ends that are not written are not given here.

Legend:
[1] = molecular target: Trastuzumab (anti-HER2/neu IgG); assay: fluorescence quenching
[2] = molecular target: Trastuzumab (anti-HER2/neu IgG); assay: fluorescence quenching: ligand titrated into trastuzumab, F/F0 against Ligand (nM)
[3] = molecular target: Trastuzumab (anti-HER2/neu IgG); assay: fluorescence quenching, ligand titrated into 30 nM trastuzumab; apparent Kd
[4] = molecular target: Trastuzumab (anti-HER2/neu IgG); assay: fluorescence quenching, ligand titrated into 30 nM trastuzumab
[5] = molecular target: Trastuzumab (anti-HER2/neu IgG); assay: method not stated in the legend
[6] = molecular target: Trastuzumab (anti-HER2/neu IgG); assay: flow cytometry on HER2-expressing cells, FITC signal of cHBL-tagged trastuzumab

fold increase in observed affinity against the peptide without napht [1]: > 4 fold
EC50 (read off the curve) [2]: 0.05 µM
Kd [3]: 0.0466 µM
B1: Trast-Napht-DNP (peptide)
peptide: LLGPYELWELSH
modifications: also: DNP attached via EG2 spacer, 2-naphthaleneacetic acid attached via ethylene glycol spacer, attachment sites not given here

Kd [4]: 0.2 µM
EC50 (read off the curve) [2]: 0.2 µM
B2: Trast-DNP (Trastuzumab binding peptide tagged with DNP) (peptide)
peptide: LLGPYELWELSH
modifications: not fully specified (C-terminus); also: DNP attached via EG2 spacer, attachment site not given here

Kd [5]: 1.2 µM
Binder: LLGPYELWELSH [Trastuzumab binding peptide …]

percent of maximum FITC signal at 1 µM cHBL [6]: 50%
B3: Trast-cHBL (Peptide-…) (peptide)
peptide: LLGPYELWELSH
modifications: also: 5(6)-carboxyfluorescein via EG2 spacer, EG6x2 spacer on peptide, branching Lys with 2-naphthaleneacetic acid on alpha-amine and EG4-isothiocyanate on epsilon-amine, attachment sites not given here
